According to patent US20090202574A1, “METHODS OF IMMUNE OR HAEMATOLOGICAL ENHANCEMENT, INHIBITING TUMOUR FORMATION OR GROWTH, AND TREATING OR PREVENTING CANCER” (priority 2004, published 2009):

Tests used:
B16 melanoma tumours = test: B16 melanoma tumour growth in mice; type: in vivo, C57BL/6 mice; details: Example 18; 28 g Fe-Lf per 2.4 Kg diet; fluorouracil 150 mg/Kg i.p.
Description: (§1) Tumors were established by s.c. injection of 2×10^5 EL-4 cells into the left flank of mice, and growth determined by measuring two perpendicular diameters. Animals were euthanased when tumors reached more than 1.0 cm in diameter, in accord with Animal Ethics Approval (University of Auckland). All experiments included 5 mice per treatment group, unless otherwise indicated. Paclitaxel (30 mg dissolved in 5 ml of Cremophor® EL and dehydrated alcohol) was diluted in 0.9% NaCl and administered i.p. at 30 mg/Kg. Doxorubucin in water was injected i.p. at 15 mg/Kg. The drugs were injected in a volume of 0.01 to 0.02 ml/g body weight. The expression vector encoding mouse B7-1 was prepared by cesium chloride gradient centrifugation, and diluted to 5 μg/μl in a solution of 5% glucose in 0.01% Triton X-100. It was mixed in a ratio of 1:1 (wt:wt) with DOTAP cationic liposomes (Boehringer Mannheim, Germany). Tumors were injected with 180 μl of DNA (180 μg)/liposome complexes, as described previously (Kanwar, et al., 1999 and Kanwar, et al., 2000).
(§2) Mice were fed the control diet, and the same diet supplemented with 28 g of 100% Fe-saturated lactoferrin per 2.4 Kg of diet. EL-4 (2×10^5), Lewis lung carcinoma (LLC, 2×10^5), and B16 melanoma (2×10^5) tumour cells were injected into the left flanks of C57BL/6 mice following two weeks on the Lf diets, or control diet. […]

EL-4 tumours [1] = test: EL-4 tumour growth in mice (s.c. flank tumour model); type: in vivo, C57BL/6 mice; details: for inhibition of tumour growth: Example 1, oral diet, day 42
[2] = test system: Lewis lung carcinoma (LLC) tumours; test: Lewis lung carcinoma tumour growth in mice; type: in vivo, C57BL/6 mice; details: Example 18; 28 g Fe-Lf per 2.4 Kg diet; epirubucin 15 mg/Kg i.p.
Description: as §1, §2

[3] = Blood haematological profile (red and white blood cell counts); type: in vivo, mice; details: blood from the heart at autopsy; mean
Description: The red and white blood cell counts of mice sacrificed in the preceding examples were recorded. Oral feeding of bovine iron-saturated lactoferrin alone or in combination with administration of paclitaxel or doxorubicin or both increased the mean values of red and white blood cells compared to control mice and compared to mice administered paclitaxel and doxorubicin but not fed lactoferrin, as shown in Table 1.

EL-4 target cells = test: Anti-tumour CTL and/or NK cell cytolytic activity of splenocytes against EL-4 target cells; details: for increase in anti-tumour CTL and/or NK cell activity: Example 2, day 98; for increase in anti-tumour cytolytic activity: Example 18, EL-4, vs controls
Description: Splenocytes were harvested 28 days following tumour cell injection, as specified. They were incubated at 37° C. with EL-4 target cells in graded E:T ratios in 96-well round-bottom plates. After a 4-hour incubation, 50 μl of supernatant was collected, and lysis was measured using the Cyto Tox 96 Assay Kit (Promega, Madison, Wis., USA). Background controls for non-specific target and effector cell lysis were included. After background subtraction, percentage of cell lysis was calculated using the formula: 100× (experimental-spontaneous effector-spontaneous target/maximum target-spontaneous target).

Nitrous oxide = test: Nitrite (Griess reaction) at tumour site and in intestine; type: in vivo, mice; details: Example 14, P<0.001
Description: Cytokine levels in the supernatants of homogenates of the small intestine were determined using a “sandwich” ELISA kit (Endogen, Woburn, Mass.). They were detected within standard curve ranges of 15-375 pg/ml for IL-4, 0-2450 pg/ml for IL-5, 15-1000 pg/ml for TNF-α, 0-3000 pg/ml for IFN-γ, 37-3000 pg/ml for IL-10, 31.3-2000 pg/ml for IL-12, and 31.3-2000 pg/ml for IL-18, respectively. Quantification of nitrite, indicative of NO production, was carried out by the Griess reaction (Sigma, USA). The results are expressed as the mean nitrite concentration (μM)±SD.
The ability of oral iron-saturated lactoferrin to affect the expression of a panel of Th1 and Th2 cytokines was examined in non-tumour-bearing mice, and in tumour-bearing mice fed iron-saturated bovine lactoferrin or the control diet, and treated with either paclitaxel or doxorubicin or a combination of the two drugs.

EL-4 tumours [4] = test: Apoptotic index of tumour sections (TUNEL, annexin-V-fluos); type: in vivo, C57BL/6 mice; details: Example 7; vs mice fed control diet; P<0.001
Description: For in situ detection of apoptotic cells, tumors were excised and immediately frozen in dry ice, and stored at −70° C. Frozen serial sections of 6-μm thickness were fixed with paraformaldehyde solution (4% in PBS, pH 7.4), and permeabilized with a solution containing 0.1% Triton X-100 and 0.1% sodium citrate. They were incubated with 20 μl TUNEL reagent (In Situ apoptosis detection kit from Boehringer Mannheim, Germany) for 60 min at 37° C., and examined by fluorescence microscopy. Adjacent sections were counter-stained with haematoxylin to count the total number of cells, or the number of apoptotic cells in ten randomly selected fields (magnification of ×40). The apototic index (AI) was calculated as the number of apoptotic cells×100/total number of nucleated cells. For detection of apoptotic cells in vitro, the numbers of apoptotic and necrotic tumour cells were measured by staining with annexin-V-fluos, TUNEL, and trypan blue, as described previously (Kanwar, et al., 2001).
Sections were prepared from tumours of mice shown in FIGS. 4A and 4B at day 56 for the untreated control group fed the control diet, at day 70 for the groups fed either the control or iron-saturated bovine lactoferrin diet receiving paclitaxel and/or doxorubicin, and 7 days after treatment with drugs for mice fed the control diet. […]

B1: iron-saturated bovine lactoferrin: Iron-saturated bovine lactoferrin extract (100% saturated) prepared from natural bLf (protein)
chain: APRKNVRWCTISQPEWFKCRRWQWRMKKLGAPSITCVRRAFALECIRAIAEKKADAVTLDGGMVFEAGRDPYKLRPVAAEIYGTKESPQTHYYAVAVVKKGSNFQLDQLQGRKSCHTGLGRSAGWIIPMGILRPYLSWTESLEPLQGAVAKFFSASCVPCIDRQAYPNLCQLCKGEGENQCACSSREPYFGYSGAFKCLQDGAGDVAFVKETTVFENLPEKADRDQYELLCLNNSRAPVDAFKECHLAQVPSHAVVARSVDGKEDLIWKLLSKAQEKFGKNKSRSFQLFGSPPGQRDLLFKDSALGFLRIPSKVDSALYLGSRYLTTLKNLRETAEEVKARYTRVVWCAVGPEEQKKCQQWSQQSGQNVTCATASTTDDCIVLVLKGEADALNLDGGYIYTAGKCGLVPVLAENRKSSKHSSLDCVLRPTEGYLAVAVVKKANEGLTWNSLKDKKSCHTAVDRTAGWNIPMGLIVNQTGSCAFDEFFSQSCAPGADPKSRLCALCAGDDQGLDKCVPNSKEKYYGYTGAFRCLAEDVGDVAFVKNDTVWENTNGESTADWAKNLNREDFRLLCLDGTRKPVTEAQSCHLAVAPNHAVVSRSDRAAHVKQVLLHQQALFGKNGKNCPDKFCLFKSETKNLLFNDNTECLAKLGGRPTYEEYLGTEYVTAIANLKKCSTSPLLEACAFLTR
modifications: iron-saturated; Bovine Lactoferrin
notes: Iron-saturated bovine lactoferrin extract (100% saturated) prepared from natural bLf
B16 tumour response (B16 melanoma tumours): slowed the growth of all three tumour types, but failed to eradicate the tumours altogether | inhibition of tumour growth (EL-4 tumours [1]; 2 of 5 mice, vs control diet, P>0.05): 31% | inhibition of tumour growth (EL-4 tumours [1]; the latter 3 mice (tumours first prevented for one week), P<0.05): 51% | mice remaining completely tumour-free (EL-4 tumours [1]; Example 2, of 24 mice, monitored 11 weeks): Four | mice that resisted the tumour challenge for 6 weeks (EL-4 tumours [1]; Example 2, of 24 mice, tumours then grew at reduced rate): Five | time for tumours to reach 0.4 cm in diameter (EL-4 tumours [1]; Example 13, diet started at ~0.2 cm, control mice one week): two | mice of ten that completely rejected the tumour challenge (EL-4 tumours [1]; Example 15, 20 g of Lf per 2.4 Kg diet): one | mice of ten that completely rejected the tumour challenge (EL-4 tumours [1]; Example 16, 1 g Fe-Lf per 2.4 Kg diet): one | tumour growth rate vs control diet (EL-4 tumours [1]; Example 16, 5 and 25 g per 2.4 Kg diet): grew significantly (p<0.05 at days 35-49) more slowly | mice of ten that completely rejected the tumour challenge (EL-4 tumours [1]; Example 16, 5 g Fe-Lf per 2.4 Kg diet): two | mice of ten that completely rejected the tumour challenge (EL-4 tumours [1]; Example 16, 25 g Fe-Lf per 2.4 Kg diet): three | tumour growth rate vs control diet (EL-4 tumours [1]; Example 16, lowest and highest doses (1 and 100 g per 2.4 Kg diet)): did not differ greatly | EL-4 tumour response (EL-4 tumours [1]; Example 18, 28 g Fe-Lf per 2.4 Kg diet, drugs i.p. at ~0.4 to 0.5 cm): slowed the growth of all three tumour types, but failed to eradicate the tumours altogether | LLC tumour response [2]: slowed the growth of all three tumour types, but failed to eradicate the tumours altogether | RBCs [3]: 8.2 ± 2.5 ×10^6/mm^3 | WBCs [3]: 3.5 ± 1.2 ×10^3/mm^3 | anti-tumour CTL and/or NK cell activity of splenocytes (EL-4 target cells; Example 1, splenocytes at day 42, vs control diet): significantly (P<0.05) increased | increase in anti-tumour CTL and/or NK cell activity (EL-4 target cells; mice that remained tumour-free, vs control diet, P<0.001): 6 fold | increase in anti-tumour CTL and/or NK cell activity (EL-4 target cells; mice who developed tumours and were switched to control diet, vs control diet, P<0.001): 30 fold | increase in anti-tumour cytolytic activity of splenocytes (EL-4 target cells; Example 15, the one mouse that resisted the tumour challenge, vs control, P<0.001): 6 fold | increase in anti-tumour cytolytic activities of splenocytes (EL-4 target cells; Example 16, 6 of 30 mice that rejected the tumour on 1, 5 and 25 g diets, p<0.001): 3 to 4.6 fold | increase in anti-tumour cytolytic activity (EL-4 target cells; FIG. 14B (epirubucin experiment)): 130% | increase in anti-tumour cytolytic activity (EL-4 target cells; FIG. 14D (fluorouracil experiment)): 87% | increase in anti-tumour cytolytic activity (EL-4 target cells; FIG. 14F (cyclophosphamide/methotrexate experiment)): 100% | increase in nitrous oxide (Nitrous oxide): 3 to 4 fold | increase in the apoptotic index of tumours (EL-4 tumours [4]): 1.9 fold
